Source: US20190153406

B1: human wild-type MG53 (protein)
chain: MSAAPGLLHQELSCPLCLQLFDAPVTAECGHSFCRACLGRVAGEPAADGTVLCPCCQAPTRPQALSTNLQLARLVEGLAQVPQGHCEEHLDPLSIYCEQDRALVCGVCASLGSHRGHRLLPAAEAHARLKTQLPQQKLQLQEACMRKEKSVAVLEHQLVEVEETVRQFRGAVGEQLGKMRVFLAALEGSLDREAERVRGEAGVALRRELGSLNSYLEQLRQMEKVLEEVADKPQTEFLMKYCLVTSRLQKILAESPPPARLDIQLPIISDDFKFQVWRKMFRALMPALEELTFDPSSAHPSLVVSSSGRRVECSEQKAPPAGEDPRQFDKAVAVVAHQQLSEGEHYWEVDVGDKPRWALGVIAAEAPRRGRLHAVPSQGLWLLGLREGKILEAHVEAKEPRALRSPERRPTRIGLYLSFGDGVLSFYDASDADALVPLFAFHERLPRPVYPFFDVCWHDKGKNAQPLLLVGPEGAEA
B2: human MG53 S255A mutant (protein)
chain: MSAAPGLLHQELSCPLCLQLFDAPVTAECGHSFCRACLGRVAGEPAADGTVLCPCCQAPTRPQALSTNLQLARLVEGLAQVPQGHCEEHLDPLSIYCEQDRALVCGVCASLGSHRGHRLLPAAEAHARLKTQLPQQKLQLQEACMRKEKSVAVLEHQLVEVEETVRQFRGAVGEQLGKMRVFLAALEGSLDREAERVRGEAGVALRRELGSLNSYLEQLRQMEKVLEEVADKPQTEFLMKYCLVTSRLQKILAEAPPPARLDIQLPIISDDFKFQVWRKMFRALMPALEELTFDPSSAHPSLVVSSSGRRVECSEQKAPPAGEDPRQFDKAVAVVAHQQLSEGEHYWEVDVGDKPRWALGVIAAEAPRRGRLHAVPSQGLWLLGLREGKILEAHVEAKEPRALRSPERRPTRIGLYLSFGDGVLSFYDASDADALVPLFAFHERLPRPVYPFFDVCWHDKGKNAQPLLLVGPEGAEA
B3: mouse MG53 S255A mutant (protein)
chain: MSAAPGLLRQELSCPLCLQLFDAPVTAECGHSFCRACLIRVAGEPAADGTVACPCCQAPTRPQALSTNLQLSRLVEGLAQVPQGHCEEHLDPLSIYCEQDRTLVCGVCASLGSHRGHRLLPAAEAQARLKTQLPQQKMQLQEACMRKEKTVAVLEHQLVEVEETVRQFRGAVGEQLGKMRMFLAALESSLDREAERVRGDAGVALRRELSSLNSYLEQLRQMEKVLEEVADKPQTEFLMKFCLVTSRLQKILSEAPPPARLDIQLPVISDDFKFQVWKKMFRALMPALEELTFDPSSAHPSLVVSSSGRRVECSDQKAPPAGEDTRQFDKAVAVVAQQLLSQGEHYWEVEVGDKPRWALGVMAADASRRGRLHAVPSQGLWLLGLRDGKILEAHVEAKEPRALRTPERPPARIGLYLSFADGVLAFYDASNPDVLTPIFSFHERLPGPVYPIFDVCWHDKGKNAQPLLLVGPEQEQA
B4: mouse wild-type MG53 (protein)
chain: MSAAPGLLRQELSCPLCLQLFDAPVTAECGHSFCRACLIRVAGEPAADGTVACPCCQAPTRPQALSTNLQLSRLVEGLAQVPQGHCEEHLDPLSIYCEQDRTLVCGVCASLGSHRGHRLLPAAEAQARLKTQLPQQKMQLQEACMRKEKTVAVLEHQLVEVEETVRQFRGAVGEQLGKMRMFLAALESSLDREAERVRGDAGVALRRELSSLNSYLEQLRQMEKVLEEVADKPQTEFLMKFCLVTSRLQKILSESPPPARLDIQLPVISDDFKFQVWKKMFRALMPALEELTFDPSSAHPSLVVSSSGRRVECSDQKAPPAGEDTRQFDKAVAVVAQQLLSQGEHYWEVEVGDKPRWALGVMAADASRRGRLHAVPSQGLWLLGLRDGKILEAHVEAKEPRALRTPERPPARIGLYLSFADGVLAFYDASNPDVLTPIFSFHERLPGPVYPIFDVCWHDKGKNAQPLLLVGPEQEQA

Columns and labels:
[1] = molecular target: IRS1 (insulin receptor substrate-1), species not stated
IRS1 (insulin receptor substrate-1), species not stated, sequence (P35568 whole entry): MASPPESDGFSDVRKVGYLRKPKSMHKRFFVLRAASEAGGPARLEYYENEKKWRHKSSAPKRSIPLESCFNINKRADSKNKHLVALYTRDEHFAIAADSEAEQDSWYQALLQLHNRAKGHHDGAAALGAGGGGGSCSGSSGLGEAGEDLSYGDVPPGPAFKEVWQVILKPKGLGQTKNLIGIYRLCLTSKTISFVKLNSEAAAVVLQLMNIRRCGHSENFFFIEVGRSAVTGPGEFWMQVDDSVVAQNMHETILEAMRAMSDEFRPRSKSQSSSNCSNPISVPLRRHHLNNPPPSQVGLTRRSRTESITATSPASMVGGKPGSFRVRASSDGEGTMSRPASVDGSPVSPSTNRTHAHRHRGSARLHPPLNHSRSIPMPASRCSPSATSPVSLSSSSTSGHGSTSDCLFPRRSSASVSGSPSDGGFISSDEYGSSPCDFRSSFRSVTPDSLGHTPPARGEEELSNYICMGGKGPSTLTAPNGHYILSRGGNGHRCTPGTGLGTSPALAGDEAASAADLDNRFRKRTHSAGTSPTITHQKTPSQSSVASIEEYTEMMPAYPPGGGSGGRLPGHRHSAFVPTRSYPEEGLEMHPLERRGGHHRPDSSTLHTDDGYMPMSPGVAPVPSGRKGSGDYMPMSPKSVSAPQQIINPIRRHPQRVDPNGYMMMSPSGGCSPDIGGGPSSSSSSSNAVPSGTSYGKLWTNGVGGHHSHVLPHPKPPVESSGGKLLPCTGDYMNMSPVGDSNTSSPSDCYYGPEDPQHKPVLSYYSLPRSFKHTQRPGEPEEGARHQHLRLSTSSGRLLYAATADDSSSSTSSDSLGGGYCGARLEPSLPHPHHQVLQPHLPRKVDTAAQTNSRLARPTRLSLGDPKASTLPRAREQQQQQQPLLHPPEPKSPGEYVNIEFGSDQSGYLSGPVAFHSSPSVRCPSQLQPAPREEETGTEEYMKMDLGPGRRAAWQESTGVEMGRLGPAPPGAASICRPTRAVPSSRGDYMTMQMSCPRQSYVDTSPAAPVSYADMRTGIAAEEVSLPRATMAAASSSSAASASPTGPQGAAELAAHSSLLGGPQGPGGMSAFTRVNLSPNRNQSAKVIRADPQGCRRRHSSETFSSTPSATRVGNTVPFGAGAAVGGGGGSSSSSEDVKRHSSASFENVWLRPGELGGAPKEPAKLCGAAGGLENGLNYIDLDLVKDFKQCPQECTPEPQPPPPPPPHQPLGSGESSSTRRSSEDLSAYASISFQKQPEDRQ

Protein | degradation of IRβ, Western Blot, HEK293T co-expression (FIG. 16B) (insulin receptor IR) | degradation of precursor protein of IRβ, HEK293T co-expression (insulin receptor IR) | further results
B1 |  |  | MG53-mediated substrate degradation, Western Blot, HEK293T co-expression (FIG. 17) [1]: human or mouse wild-type MG53 can significantly mediate IRS1 degradation
B2 |  |  | degradation of IRS1, Western Blot, HEK293T co-expression (FIG. 17) [1]: human MG53 S255A mutant can only mediate about 10% degradation of IRS1
B3 | mouse MG53-D-RING truncated mutant and mouse MG53 S255A mutant can hardly mediate IRβ degradation | mouse MG53-D-RING truncated mutant and mouse MG53 S255A mutant almost completely inhibited MG53-mediated degradation | degradation of IRS1, Western Blot, HEK293T co-expression (FIG. 16) [1]: mouse MG53 S255A mutant can only mediate about 40% degradation of IRS1
B4 | Mouse wild-type MG53 can mediate about 50% degradation of IRβ | mouse wild-type MG53 can mediate the degradation of precursor protein of IRβ | MG53-mediated substrate degradation, Western Blot, HEK293T co-expression (FIG. 16) [1]: human or mouse wild-type MG53 can significantly mediate IRS1 degradation
